Patent publication US6495137
“And” between values parts separate entries of the source, which are not always exact repeats. Equal values may be shown once.

Tests used:
[1] = target: bovine submaxillary mucin (BSM), TAG-72-positive (bovine); assay: radiolabeled antibody bound to BSM beads
[2] = target: bovine submaxillary mucin (BSM), TAG-72-positive (bovine); assay: competition RIA, 125I-labeled nCC49 as competitor, BSM as target antigen; design: unit not given here
[3] = target: bovine submaxillary mucin (BSM), TAG-72-positive (bovine); assay: relative affinity constant, competition RIA on BSM, Scatchard analysis

B1: HuCC49* humanized CC49 monoclonal antibody (antibody, V domains shown)
VH: QVQLVQSGAEVVKPGASVKISCKASGYTFTDHAIHWVKQNPGQRLEWIGYFSPGNDDFKYNERFKGKATLTADTSASTAYVELSSLRSEDTAVYFCTRSLNMAYWGQGTLVTVSS
VL: DIVMSQSPDSLAVSLGERVTLNCKSSQSLLYSGNQKNYLAWYQQKPGQSPKLLIYWASARESGVPDRFSGSGSGTDFTLTISSVQAEDVAVYYCQQYYSYPLTFGAGTKLELK
percent bound [1]: > 85% and 85%
amount required for 50% competition [2]: 45
Ka [3]: 6e+07 M⁻¹
